# Data reported in paper PMC11395016, “The Ubiquitination of Arrestin3 within the Nucleus Triggers the Nuclear Export of Mdm2, Which, in Turn, Mediates the Ubiquitination of GRK2 in the Cytosol” (International Journal of Molecular Sciences, 2024).
# Molecular target: T1, FLAG-Mdm2 (UniProt Q00987 1-491)
# T1 construct: Mdm2, E3 ubiquitin ligase; source: HEK-293, transfected, in nuclear and cytoplasmic fractions
# Assay: co-IP; HEK-293 cells transfected with D2R, GRK2 and FLAG-Mdm2; vehicle or 10 μM dopamine for 2 min; nuclear and cytoplasmic fractions each immunoprecipitated with FLAG beads; blot for GRK2
# Conditions: partners not purified
# T1 sequence (Q00987 whole entry): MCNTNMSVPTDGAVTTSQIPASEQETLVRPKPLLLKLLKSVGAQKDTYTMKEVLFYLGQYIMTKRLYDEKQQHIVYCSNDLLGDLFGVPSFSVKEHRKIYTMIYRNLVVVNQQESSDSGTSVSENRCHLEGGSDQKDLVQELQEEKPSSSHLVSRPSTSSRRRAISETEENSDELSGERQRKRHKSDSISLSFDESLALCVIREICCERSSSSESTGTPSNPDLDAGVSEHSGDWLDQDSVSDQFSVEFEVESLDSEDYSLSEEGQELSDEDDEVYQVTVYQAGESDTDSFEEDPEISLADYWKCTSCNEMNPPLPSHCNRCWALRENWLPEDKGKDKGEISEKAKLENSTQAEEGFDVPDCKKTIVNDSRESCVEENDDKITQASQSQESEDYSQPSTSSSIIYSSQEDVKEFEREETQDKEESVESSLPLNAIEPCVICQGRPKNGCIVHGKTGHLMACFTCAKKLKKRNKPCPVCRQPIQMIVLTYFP
binder,measurement,value
"GRK2 (enzyme, UniProt P25098 1-689, looked up, GPCR kinase 2 (GRK2), plasmid without a named tag; detected with antibodies against GRK2; also called GPCR kinase 2; source: HEK-293, transfected, in nuclear and cytoplasmic fractions) MADLEAVLADVSYLMAMEKSKATPAARASKKILLPEPSIRSVMQKYLEDRGEVTFEKIFSQKLGYLLFRDFCLNHLEEARPLVEFYEEIKKYEKLETEEERVARSREIFDSYIMKELLACSHPFSKSATEHVQGHLGKKQVPPDLFQPYIEEICQNLRGDVFQKFIESDKFTRFCQWKNVELNIHLTMNDFSVHRIIGRGGFGEVYGCRKADTGKMYAMKCLDKKRIKMKQGETLALNERIMLSLVSTGDCPFIVCMSYAFHTPDKLSFILDLMNGGDLHYHLSQHGVFSEADMRFYAAEIILGLEHMHNRFVVYRDLKPANILLDEHGHVRISDLGLACDFSKKKPHASVGTHGYMAPEVLQKGVAYDSSADWFSLGCMLFKLLRGHSPFRQHKTKDKHEIDRMTLTMAVELPDSFSPELRSLLEGLLQRDVNRRLGCLGRGAQEVKESPFFRSLDWQMVFLQKYPPPLIPPRGEVNAADAFDIGSFDEEDTKGIKLLDSDQELYRNFPLTISERWQQEVAETVFDTINAETDRLEARKKAKNKQLGHEEDYALGKDCIMHGYMSKMGNPFLTQWQRRYFYLFPNRLEWRGEGEAPQSLLTMEEIQSVEETQIKERKCLLLKIRGGKQFILQCDSDPELVQWKKELRDAYREAQQLVQRVPKMKNKPRSPVVELSKVPLVQRGSANGL","ratio of band intensities in the blot, DA(+)/CF group against the DA(−)/CF group (1.0)",2.4
